Molecular target: RNF111 RING (Homo sapiens), Q6ZNA4
Sequence (Q6ZNA4 939-986): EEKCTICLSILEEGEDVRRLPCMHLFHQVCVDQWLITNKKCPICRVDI

B1: UBXN7 UAS, O94888 (protein)
chain: IDKKLTTLADLFRPPIDLMHKGSFETAKECGQMQNKWLMINIQNVQDFACQCLNRDVWSNEAVKNIIREHFIFWQVYHDSEEGQRYIQFYKLGDFPYVSILDPRTGQKLVEWHQLDVSSFLDQVTGFLGE
How did the Kd turn out when B1 was run?
Its Kd is 1 µM.
